Test results: publication PMC12637021, “Talin–tensin3 interactions regulate fibrillar adhesion formation and tensin3 phase separation” (The Journal of Cell Biology, 2025)

What was measured:
U2OS TNS3KO cells [1] = assay: vinculin-positive FAs on VN; format: cell-based, human; details: TNS3-WT vs TNS3-L702E; VN-coated, serum-free; n = 74 (WT) and 51 (L702E) cells
Method: (§1) Cells were fixed in 4% paraformaldehyde (PFA, Sigma-Aldrich), which had been prewarmed to 37°C for 15 min before being washed three times with PBS. For immunofluorescence staining, cells were permeabilized with 0.5% Triton X-100 (Sigma-Aldrich) at room temperature for 5 min before being washed three times with PBS. Blebbistatin (Tocris Bioscience) was diluted in dimethyl sulfoxide (Sigma-Aldrich) and used at a final concentration of 50 μM. […]
(§2) Analysis of cell adhesion sites, FN fibrils, and LLPS condensates was performed using FIJI/ImageJ (version 1.54f) software ([Schindelin et al., 2012]). […] Prior to adhesion quantification, the images were background-subtracted using a rolling ball algorithm, followed by thresholding of adhesion sites and Analyse Particles functions in FIJI/ImageJ to quantify adhesions. Adhesion sites with sizes between 0.4 and 10 μm^2 were counted, except for adhesions in blebbistatin-treated cells, which were counted with sizes between 0.2 and 4 μm^2. […]

NIH3T3 cells [2] = assay: client protein recruitment to tensin3 condensates; format: cell-based, mouse; details: TNS3-L702E condensates
Excerpt: Since the observed tensin3 condensates were derived from adhesion sites in a talin-regulated mechanosensitive manner, we wondered whether these condensates contain other adhesion components or signaling molecules. To address this question, we examined a selection of cell–matrix adhesion proteins that have been reported by others to be present in LLPS condensates. These proteins include LIMD1 ([Wang et al., 2021]), kindlin2 ([Hsu et al., 2023]), talin ([Hsu et al., 2023]; [Litschel et al., 2024]), KANK ([Guo et al., 2023]), tensin1 ([Lee et al., 2023]), vinculin ([Litschel et al., 2024]), and GIT1 ([Zhu et al., 2020]). We added the actin regulatory RhoGAP DLC1 to this selection, as it is known to bind tensin ([Liao et al., 2006]; [Shih et al., 2015]), and the RNA regulatory protein GIGYF1, which we had previously identified alongside many of the aforementioned proteins in tensin BioID datasets ([Atherton et al., 2022]). We also added stress granule components G3BP1 ([Tourrière et al., […]]) and TDP-43 ([Colombrita et al., 2009]). These proteins were either co-expressed as fluorescently tagged proteins (Fig. S4 I) or, where antibodies were available, probed endogenously in cells that formed GFP-TNS3 condensates (Fig. 8 A).
(§3) Cells were fixed in 4% paraformaldehyde (PFA, Sigma-Aldrich), which had been prewarmed to 37°C for 15 min before being washed three times with PBS. For immunofluorescence staining, cells were permeabilized with 0.5% Triton X-100 (Sigma-Aldrich) at room temperature for 5 min before being washed three times with PBS. Blebbistatin (Tocris Bioscience) was diluted in dimethyl sulfoxide (Sigma-Aldrich) and used at a final concentration of 50 μM. The following primary antibodies were diluted in 1% bovine serum albumin (BSA, Sigma-Aldrich): mouse anti-α5 integrin (SNAKA51, 1:100, NBP2-50146; Novus Biologicals), rat anti-β1 integrin (9EG7, 1:200; 553715; BD Biosciences), mouse anti-FN (IST-9, 1:100, ab6328; Abcam), rabbit anti-tensin3 (1:200, HPA055338; Atlas), mouse anti-EEA1 (1:500, 68065-1-IG; Proteintech), mouse anti-LAMP1 (1:200, ab320851; Abcam), mouse anti-paxillin (349, 1:400, mab3060; Sigma-Aldrich), rabbit anti-talin1 (1:200, 82856-4-RR; Proteintech), mouse anti-vinculin (hVin1, 1:500, V9264; Sigma-Aldrich), rabbit anti-KANK2 (1:100, HPA015643; Sigma-Aldrich), rabbit anti-kindlin2 (1:100, 11453-1-AP; Proteintech), rabbit anti-GIT1 (1:200, 26247-1-AP; Proteintech), mouse anti-phosphotyrosine (4G10, 1:200, 05-321X; Sigma-Aldrich), rabbit anti-G3BP1 (1:600, 13057-2-AP; Proteintech), rabbit anti-TDP43 (1:400, 10782-2-AP; Proteintech), and rabbit anti-GIGYF1 (1:400, ab121784; Abcam). […]

NIH3T3 cells [3] = assay: condensates on soft vs stiff PDMS, NIH3T3 cells; format: cell-based, mouse; details: 1.5 kPa vs 28 kPa FN-coated PDMS, overnight
Method: Imaging dishes equipped with 40 µm-thick PDMS substrates (1.5 and 28 kPa) were purchased from ibidi. PDMS dishes were coated with 30 μg/ml FN for 1 h, followed by three washes with PBS. Dishes were incubated with DMEM for 10 min to equilibrate before cells were plated and incubated overnight at 37°C.
To establish a correlation between tensin3 expression and condensation formation, a maximum intensity Z-projection was performed on Z-stack images of NIH3T3 cells (step depth 0.2 μm). The integrated fluorescence intensity was measured by normalizing the mean pixel intensity of each cell to the average of all values in cells expressing mCh-TNS3. To measure the condensate coverage in NIH3T3 cells, the images were background-subtracted (rolling ball) and then thresholded. This was followed by the Analyse Particles function in FIJI/ImageJ to select round condensate structures (circularity 0.7–1.0) ([Bussi et al., 2023]; [Dumelie et al., 2024]) with a size larger than 0.1 μm^2. The same settings were applied to quantify the number of condensates in NIH3T3 and HFF cells.

NIH3T3 cells [4] = assay: adhesion stability under blebbistatin, NIH3T3 cells; format: cell-based, mouse; details: blebbistatin 50 µM, 60 min; n = 64 (WT), 49 (L702E), 62 (ΔPTB), 71 (Cterm) cells
Method: as §1, §2

[5] = tested on: active β1 integrin, U2OS TNS3KO cells; assay: β1 integrin-positive adhesions, U2OS TNS3KO cells; format: cell-based, human; details: vs TNS3-WT; FN-coated; 9EG7
Method: as §1, §2

U2OS TNS3KO cells [6] = assay: adhesion stability under blebbistatin, U2OS TNS3KO cells; format: cell-based, human; details: blebbistatin 50 µM
Method: as §3, §2

B1: TNS3-L702E: tensin3 carrying the L702E point mutation that blocks the interaction with talin (protein, UniProt Q68CZ2 1-1445, looked up, variant L702E)
Tensin-3: MEEGHGLDLTYITERIIAVSFPAGCSEESYLHNLQEVTRMLKSKHGDNYLVLNLSEKRYDLTKLNPKIMDVGWPELHAPPLDKMCTICKAQESWLNSNLQHVVVIHCRGGKGRIGVVISSYMHFTNVSASADQALDRFAMKKFYDDKVSALMQPSQKRYVQFLSGLLSGSVKMNASPLFLHFVILHGTPNFDTGGVCRPFLKLYQAMQPVYTSGIYNVGPENPSRICIVIEPAQLLKGDVMVKCYHKKYRSATRDVIFRLQFHTGAVQGYGLVFGKEDLDNASKDDRFPDYGKVELVFSATPEKIQGSEHLYNDHGVIVDYNTTDPLIRWDSYENLSADGEVLHTQGPVDGSLYAKVRKKSSSDPGIPGGPQAIPATNSPDHSDHTLSVSSDSGHSTASARTDKTEERLAPGTRRGLSAQEKAELDQLLSGFGLEDPGSSLKEMTDARSKYSGTRHVVPAQVHVNGDAALKDRETDILDDEMPHHDLHSVDSLGTLSSSEGPQSAHLGPFTCHKSSQNSLLSDGFGSNVGEDPQGTLVPDLGLGMDGPYERERTFGSREPKQPQPLLRKPSVSAQMQAYGQSSYSTQTWVRQQQMVVAHQYSFAPDGEARLVSRCPADNPGLVQAQPRVPLTPTRGTSSRVAVQRGVGSGPHPPDTQQPSPSKAFKPRFPGDQVVNGAGPELSTGPSPGSPTLDIDQSIEQENRLILELDPTFEPIPTHMNALGSQANGSVSPDSVGGGLRASSRLPDTGEGPSRATGRQGSSAEQPLGGRLRKLSLGQYDNDAGGQLPFSKCAWGKAGVDYAPNLPPFPSPADVKETMTPGYPQDLDIIDGRILSSKESMCSTPAFPVSPETPYVKTALRHPPFSPPEPPLSSPASQHKGGREPRSCPETLTHAVGMSESPIGPKSTMLRADASSTPSFQQAFASSCTISSNGPGQRRESSSSAERQWVESSPKPMVSLLGSGRPTGSPLSAEFSGTRKDSPVLSCFPPSELQAPFHSHELSLAEPPDSLAPPSSQAFLGFGTAPVGSGLPPEEDLGALLANSHGASPTPSIPLTATGAADNGFLSHNFLTVAPGHSSHHSPGLQGQGVTLPGQPPLPEKKRASEGDRSLGSVSPSSSGFSSPHSGSTISIPFPNVLPDFSKASEAASPLPDSPGDKLVIVKFVQDTSKFWYKADISREQAIAMLKDKEPGSFIVRDSHSFRGAYGLAMKVATPPPSVLQLNKKAGDLANELVRHFLIECTPKGVRLKGCSNEPYFGSLTALVCQHSITPLALPCKLLIPERDPLEEIAESSPQTAANSAAELLKQGAACNVWYLNSVEMESLTGHQAIQKALSITLVQEPPPVSTVVHFKVSAQGITLTDNQRKLFFRRHYPVNSVIFCALDPQDRKWIKDGPSSKVFGFVARKQGSATDNVCHLFAEHDPEQPASAIVNFVSKVMIGSPKKV
modifications: mCherry or GFP tag
U2OS TNS3KO cells [1]
  formation of vinculin-positive FA: no difference
NIH3T3 cells [2]
  localization of talin1/2, KANK1/2 and vinculin into condensates: failed to localize into the tensin3 condensates
  presence of tensin1, LIMD1, DLC1, and GIGYF1 in condensates: remained present
NIH3T3 cells [3]
  condensates on soft vs stiff substrate: no difference in condensate formation on soft versus stiff substrates
NIH3T3 cells [4]
  construct-positive adhesions after blebbistatin: mostly disappear
[5]
  reduction of adhesion-promoting effect (β1 integrin-positive adhesions): 57%
U2OS TNS3KO cells [6]
  subcellular localization of construct under blebbistatin: almost exclusively found in the LLPS condensates in the cytoplasm
